Laboratory results taken from the supplement of paper PMC10567573.

B1: RSPH3 (parent)
chain: MTVKPAKAASLARNLAKRRRTYLG

Variants of: B1
Experiment: protein stability index of a GFP-peptide fusion (GPS, HEK-293T) (PSI 1-6); higher = more stable
Conditions: c terminus: a fixed tail appended
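Also: lentivirally expressed fusions sorted by FACS into six bins by GFP to DsRed ratio, PSI derived from sequencing read proportions per bin multiplied by bin number.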

Variant	protein stability index
MTVKPAKAASAARNLAKRRRTYLG [L11A]	4
MTVKPAKAASCARNLAKRRRTYLG [L11C]	2.54
MTVKPAKAASDARNLAKRRRTYLG [L11D]	3.46
MTVKPAKAASEARNLAKRRRTYLG [L11E]	4.03
MTVKPAKAASFARNLAKRRRTYLG [L11F]	2.19
MTVKPAKAASGARNLAKRRRTYLG [L11G]	3
MTVKPAKAASHARNLAKRRRTYLG [L11H]	3.66
MTVKPAKAASIARNLAKRRRTYLG [L11I]	2.61
MTVKPAKAASKARNLAKRRRTYLG [L11K]	3.15
MTVKPAKAASMARNLAKRRRTYLG [L11M]	3.16
MTVKPAKAASNARNLAKRRRTYLG [L11N]	3.99
MTVKPAKAASPARNLAKRRRTYLG [L11P]	3.68
MTVKPAKAASQARNLAKRRRTYLG [L11Q]	3.79
MTVKPAKAASRARNLAKRRRTYLG [L11R]	2.18
MTVKPAKAASSARNLAKRRRTYLG [L11S]	3.29
MTVKPAKAASTARNLAKRRRTYLG [L11T]	3.36
MTVKPAKAASVARNLAKRRRTYLG [L11V]	3.3
MTVKPAKAASWARNLAKRRRTYLG [L11W]	1.83
MTVKPAKAASYARNLAKRRRTYLG [L11Y]	3.01
MTVKPAKAASLCRNLAKRRRTYLG [A12C]	2.87
MTVKPAKAASLDRNLAKRRRTYLG [A12D]	3.94
MTVKPAKAASLERNLAKRRRTYLG [A12E]	2.83
MTVKPAKAASLFRNLAKRRRTYLG [A12F]	1.94
MTVKPAKAASLGRNLAKRRRTYLG [A12G]	3.21

Variant	protein stability index
MTVKPAKAASLHRNLAKRRRTYLG [A12H]	2.17
MTVKPAKAASLIRNLAKRRRTYLG [A12I]	2.69
MTVKPAKAASLKRNLAKRRRTYLG [A12K]	3.22
MTVKPAKAASLLRNLAKRRRTYLG [A12L]	1.34
MTVKPAKAASLMRNLAKRRRTYLG [A12M]	2.22
MTVKPAKAASLNRNLAKRRRTYLG [A12N]	2.49
MTVKPAKAASLPRNLAKRRRTYLG [A12P]	2.87
MTVKPAKAASLQRNLAKRRRTYLG [A12Q]	3.11
MTVKPAKAASLRRNLAKRRRTYLG [A12R]	3.67
MTVKPAKAASLSRNLAKRRRTYLG [A12S]	2.39
MTVKPAKAASLTRNLAKRRRTYLG [A12T]	3.28
MTVKPAKAASLVRNLAKRRRTYLG [A12V]	2.16
MTVKPAKAASLWRNLAKRRRTYLG [A12W]	2.09
MTVKPAKAASLYRNLAKRRRTYLG [A12Y]	2.19
MTVKPAKAASLAANLAKRRRTYLG [R13A]	3.26
MTVKPAKAASLACNLAKRRRTYLG [R13C]	3.12
MTVKPAKAASLADNLAKRRRTYLG [R13D]	2.85
MTVKPAKAASLAENLAKRRRTYLG [R13E]	3.08
MTVKPAKAASLAFNLAKRRRTYLG [R13F]	2.29
MTVKPAKAASLAGNLAKRRRTYLG [R13G]	2.86
MTVKPAKAASLAHNLAKRRRTYLG [R13H]	2.42
MTVKPAKAASLAINLAKRRRTYLG [R13I]	2.7
MTVKPAKAASLAKNLAKRRRTYLG [R13K]	3.08
MTVKPAKAASLALNLAKRRRTYLG [R13L]	2.36

Variant	protein stability index
MTVKPAKAASLAMNLAKRRRTYLG [R13M]	2.39
MTVKPAKAASLANNLAKRRRTYLG [R13N]	3.63
MTVKPAKAASLAPNLAKRRRTYLG [R13P]	2.48
MTVKPAKAASLAQNLAKRRRTYLG [R13Q]	3.48
MTVKPAKAASLASNLAKRRRTYLG [R13S]	2.8
MTVKPAKAASLATNLAKRRRTYLG [R13T]	2.66
MTVKPAKAASLAVNLAKRRRTYLG [R13V]	2.56
MTVKPAKAASLAWNLAKRRRTYLG [R13W]	1.8
MTVKPAKAASLARALAKRRRTYLG [N14A]	1.87
MTVKPAKAASLARCLAKRRRTYLG [N14C]	2.14
MTVKPAKAASLARDLAKRRRTYLG [N14D]	3.08
MTVKPAKAASLARELAKRRRTYLG [N14E]	2.88
MTVKPAKAASLARFLAKRRRTYLG [N14F]	1.96
MTVKPAKAASLARGLAKRRRTYLG [N14G]	3.21
MTVKPAKAASLARHLAKRRRTYLG [N14H]	1.94
MTVKPAKAASLARILAKRRRTYLG [N14I]	1.22
MTVKPAKAASLARKLAKRRRTYLG [N14K]	2.4
MTVKPAKAASLARMLAKRRRTYLG [N14M]	2.39
MTVKPAKAASLARPLAKRRRTYLG [N14P]	2.8
MTVKPAKAASLARQLAKRRRTYLG [N14Q]	3.41
MTVKPAKAASLARRLAKRRRTYLG [N14R]	2.13
MTVKPAKAASLARSLAKRRRTYLG [N14S]	2.62
MTVKPAKAASLARTLAKRRRTYLG [N14T]	3.29
MTVKPAKAASLARVLAKRRRTYLG [N14V]	2.53

Variant	protein stability index
MTVKPAKAASLARWLAKRRRTYLG [N14W]	2.67
MTVKPAKAASLARYLAKRRRTYLG [N14Y]	2.75
MTVKPAKAASLARNAAKRRRTYLG [L15A]	4.08
MTVKPAKAASLARNCAKRRRTYLG [L15C]	3.14
MTVKPAKAASLARNDAKRRRTYLG [L15D]	4.11
MTVKPAKAASLARNEAKRRRTYLG [L15E]	4.42
MTVKPAKAASLARNFAKRRRTYLG [L15F]	2.08
MTVKPAKAASLARNGAKRRRTYLG [L15G]	4.08
MTVKPAKAASLARNHAKRRRTYLG [L15H]	3.32
MTVKPAKAASLARNIAKRRRTYLG [L15I]	3.14
MTVKPAKAASLARNKAKRRRTYLG [L15K]	3.48
MTVKPAKAASLARNMAKRRRTYLG [L15M]	2.58
MTVKPAKAASLARNNAKRRRTYLG [L15N]	3.56
MTVKPAKAASLARNPAKRRRTYLG [L15P]	3.75
MTVKPAKAASLARNQAKRRRTYLG [L15Q]	3.34
MTVKPAKAASLARNRAKRRRTYLG [L15R]	3.92
MTVKPAKAASLARNSAKRRRTYLG [L15S]	3.75
MTVKPAKAASLARNTAKRRRTYLG [L15T]	3.35
MTVKPAKAASLARNVAKRRRTYLG [L15V]	4.02
MTVKPAKAASLARNYAKRRRTYLG [L15Y]	2.84
MTVKPAKAASLARNLCKRRRTYLG [A16C]	2.72
MTVKPAKAASLARNLDKRRRTYLG [A16D]	3.04
